# Measured values reported in paper PMC12327846.
# Biological target: T1, DtxR (Corynebacterium glutamicum) (UniProt Q8NP95)
# T1 sequence: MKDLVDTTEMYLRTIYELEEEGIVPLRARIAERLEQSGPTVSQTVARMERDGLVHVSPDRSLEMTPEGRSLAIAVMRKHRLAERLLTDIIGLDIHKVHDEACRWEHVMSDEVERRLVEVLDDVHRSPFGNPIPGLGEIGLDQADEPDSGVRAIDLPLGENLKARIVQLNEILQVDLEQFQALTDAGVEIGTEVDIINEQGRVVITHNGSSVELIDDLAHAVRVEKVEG
# Experiment: EMSA
# Details: EMSA: 31 nM DNA, DtxR at 0/50/200-fold (A) or 0/300/400-fold (B) excess; 50 mM Tris-HCl pH 7.5, 5 mM MgCl2 (rest of buffer not in material); 30 min, room …
row,Sequence,binding
1,GGACCTAAGCGTGTAAGATGGAAACGTCTGTATCGGATAAGTAGCGAGGAGTGTTCGTTAAAAGTGGCAAACACTGAACACAATTATGACGCTTCATCGATCACCATCCTTGAAGGTCTTG (double strand) [gyrB promoter 121 bp],no binding
2,GAGTAGTAGCAGTGGGTATTTGCAAGCCTTTGACAAGTTACTAAACCGTGCTACCGAAACCCCTCGTGTTTAAATCTAGAAGTTTAAAGGGTGAAAACAGTCCATTACTTAAGCACCAATC (double strand) [NCgl0177 promoter 121 bp],no binding
3,AACCTGGGGGTTATATAAAAAACTTCACAAAAAGGTTGCATCCGCATCAACCGAAAGATAGTGTGTGTGAGGCAAGCCTAAGTAAACTTCTTCAAGGTTCGGGCTGGTTCCTTGAAGACGG (double strand) [xerC promoter 121 bp],binds
4,GTGGCGCTTTGCCTGTGTTGCTTAGGCGGCGTTGAAAATGAACTACGAATGAAAAGTTCGGGAATTGTCTAATCCGTACTAAGCTGTCTACACAATGTCTACTTCAGTTACTTCACCAGC (double strand) [metH promoter 121 bp],binds
5,TAGTCGTATCAAAAAGTGCTCTGATCTTAACTTTGCCCTACCTAAATACATGACCCCACCACGACGGCCAGTACTAACGACAGAATCCACTAGCGAACCCATTTATTAACAAACATTGCAA (double strand) [NCgl2776 promoter 121 bp (primers named NCgl2766)],binds
6,TTTGACGTGCTTTTTTAGCACGCCATTAAGCTAAAAATAAGGTTAGGGTGCGTTATGTTTTCAGGTATCAAAAGGTGCTAATGCCTTTATTGTGTTTCGCATTGTCATTTACCACATGAAG (double strand) [cepA promoter 121 bp],binds
